Measurements reported in patent publication US20160039916A1 (MISFOLDING DIAGNOSTICS, published 2016).
Ends that are not written are not given here.

Biological target: T1, Peptide 13 (TSESGELHGLTTE) (also: biotinylated)
T1 construct: Lies on the D-strand of TTR
T1 peptide: TSESGELHGLTTE
Test: indirect ELISA: biotinylated peptide 13 (TSESGELHGLTTE) captured on NeutrAvidin, antibody titrated, HRP secondary antibody, TMB, % max. binding, the axis is Log10 [Antibody] nM

EC50: 0.247 nM
B1: MFD108 (antibody, V domains shown)
VH: EVQLVESGGDLVKPGGSLKLSCAASGFTFSNYGMSWVRQTPDKRLEWVATITSGGSYTYYPDSVKGRFTISRDNAKNTLYLQMSSLKSEDTAMYYCARDGTAWFAYWGQGTLVTVSA
VL: DIQMTQTTSSLSASLGDRVTISCRASQDISNYLNWYQQKPDGTVKLLIYYTSRLHSGVPSRFSGSGSGTDYSLTISNLEEEDIATYFCQQGNTLRTFGGGTKLEIK
